The target of one experiment is T1, SLAMF7.
T1 construct: coated protein in the ELISA; also called SLAMF7-StrepTag
T1 chain: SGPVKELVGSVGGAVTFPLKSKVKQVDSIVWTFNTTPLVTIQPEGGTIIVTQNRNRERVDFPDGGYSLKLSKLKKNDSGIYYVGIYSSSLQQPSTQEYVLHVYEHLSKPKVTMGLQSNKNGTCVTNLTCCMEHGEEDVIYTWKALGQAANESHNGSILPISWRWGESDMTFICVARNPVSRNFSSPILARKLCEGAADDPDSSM
In words: ELISA on coated SLAMF7-StrepTag. Here is the method:
(§1) Recombinant purified ECDs (50-150 ng) of each putative target protein were coated, incubated with 150 ng of the indicated primary antibody, and binding was detected using a peroxidase-conjugated anti-human Fab secondary antibody. Heatmap represents averages of technical triplicates. (8B) Target validation via siRNA knockdown. H929 cells were transfected with siRNA pools targeting the putative antibody targets ICAM1, CADM1, and PTPRG. Cells were then subjected to cognate IgG binding analysis via flow cytometry. (NT, non-targeting siRNA).
(§2) ELISA ELISA was conducted as described previously. Briefly, 50-150 ng of antigen was coated overnight in half-area 96-well plates at 4° C., blocked with 3% BSA at 37° C. for 1 h, and 150 ng of chimeric rabbit/human IgG1 was added, incubating for 2 h at 37° C. […] After incubating at 37° C. for 15 min-1 h (depending on intensity of controls), data were acquired using a SpectraMax M5 plate reader (Molecular Devices).

The next experiment addresses T2, SELL (L-Selectin).
T2 construct: coated protein in the ELISA; also called SELL-Fc-His (R&D Systems)
T2 chain: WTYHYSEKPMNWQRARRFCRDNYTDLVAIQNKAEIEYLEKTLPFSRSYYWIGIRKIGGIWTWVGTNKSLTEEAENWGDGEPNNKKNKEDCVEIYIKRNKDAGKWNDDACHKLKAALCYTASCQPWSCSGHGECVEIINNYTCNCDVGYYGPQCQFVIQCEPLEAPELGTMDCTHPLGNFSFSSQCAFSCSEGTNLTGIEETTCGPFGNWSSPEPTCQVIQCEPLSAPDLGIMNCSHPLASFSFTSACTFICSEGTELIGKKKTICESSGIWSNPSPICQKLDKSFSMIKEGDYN
The experiment is described as follows: ELISA on coated SELL-Fc-His. Here is the method: as §1, §2
On the technique in general: An ELISA detects its analyte on a solid surface through an enzyme-linked reagent.

Experiment [1] has as its target T3, CADM1-His (Acro Biosystems) (human, UniProt Q9BY67 45-374).
T3 construct: Bought; also called CADM1/IGSF4A; not shown: His tag of the bought protein
T3 sequence: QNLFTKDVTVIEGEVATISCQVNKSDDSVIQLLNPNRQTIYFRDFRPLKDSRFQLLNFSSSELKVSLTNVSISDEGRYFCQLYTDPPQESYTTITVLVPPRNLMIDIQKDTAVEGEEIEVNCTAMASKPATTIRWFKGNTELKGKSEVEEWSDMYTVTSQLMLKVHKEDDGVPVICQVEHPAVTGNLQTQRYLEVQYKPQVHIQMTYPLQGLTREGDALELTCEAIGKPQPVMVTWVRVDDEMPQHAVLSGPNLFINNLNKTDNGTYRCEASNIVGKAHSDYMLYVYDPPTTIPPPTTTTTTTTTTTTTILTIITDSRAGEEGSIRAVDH
The experiment is described as follows: ELISA on coated CADM1-His. The protocol: as §1, §2

For experiment [2], the target named is T4, PTPRG, endogenous in H929 multiple myeloma cells (human, UniProt P23470 20-1445).
T4 construct: Native protein on H929 cells (flow cytometry, siRNA knockdown) and in H929 lysates (IP/MS); also called phosphatase receptor type γ
T4 sequence (P23470 20-1445 limits assumed): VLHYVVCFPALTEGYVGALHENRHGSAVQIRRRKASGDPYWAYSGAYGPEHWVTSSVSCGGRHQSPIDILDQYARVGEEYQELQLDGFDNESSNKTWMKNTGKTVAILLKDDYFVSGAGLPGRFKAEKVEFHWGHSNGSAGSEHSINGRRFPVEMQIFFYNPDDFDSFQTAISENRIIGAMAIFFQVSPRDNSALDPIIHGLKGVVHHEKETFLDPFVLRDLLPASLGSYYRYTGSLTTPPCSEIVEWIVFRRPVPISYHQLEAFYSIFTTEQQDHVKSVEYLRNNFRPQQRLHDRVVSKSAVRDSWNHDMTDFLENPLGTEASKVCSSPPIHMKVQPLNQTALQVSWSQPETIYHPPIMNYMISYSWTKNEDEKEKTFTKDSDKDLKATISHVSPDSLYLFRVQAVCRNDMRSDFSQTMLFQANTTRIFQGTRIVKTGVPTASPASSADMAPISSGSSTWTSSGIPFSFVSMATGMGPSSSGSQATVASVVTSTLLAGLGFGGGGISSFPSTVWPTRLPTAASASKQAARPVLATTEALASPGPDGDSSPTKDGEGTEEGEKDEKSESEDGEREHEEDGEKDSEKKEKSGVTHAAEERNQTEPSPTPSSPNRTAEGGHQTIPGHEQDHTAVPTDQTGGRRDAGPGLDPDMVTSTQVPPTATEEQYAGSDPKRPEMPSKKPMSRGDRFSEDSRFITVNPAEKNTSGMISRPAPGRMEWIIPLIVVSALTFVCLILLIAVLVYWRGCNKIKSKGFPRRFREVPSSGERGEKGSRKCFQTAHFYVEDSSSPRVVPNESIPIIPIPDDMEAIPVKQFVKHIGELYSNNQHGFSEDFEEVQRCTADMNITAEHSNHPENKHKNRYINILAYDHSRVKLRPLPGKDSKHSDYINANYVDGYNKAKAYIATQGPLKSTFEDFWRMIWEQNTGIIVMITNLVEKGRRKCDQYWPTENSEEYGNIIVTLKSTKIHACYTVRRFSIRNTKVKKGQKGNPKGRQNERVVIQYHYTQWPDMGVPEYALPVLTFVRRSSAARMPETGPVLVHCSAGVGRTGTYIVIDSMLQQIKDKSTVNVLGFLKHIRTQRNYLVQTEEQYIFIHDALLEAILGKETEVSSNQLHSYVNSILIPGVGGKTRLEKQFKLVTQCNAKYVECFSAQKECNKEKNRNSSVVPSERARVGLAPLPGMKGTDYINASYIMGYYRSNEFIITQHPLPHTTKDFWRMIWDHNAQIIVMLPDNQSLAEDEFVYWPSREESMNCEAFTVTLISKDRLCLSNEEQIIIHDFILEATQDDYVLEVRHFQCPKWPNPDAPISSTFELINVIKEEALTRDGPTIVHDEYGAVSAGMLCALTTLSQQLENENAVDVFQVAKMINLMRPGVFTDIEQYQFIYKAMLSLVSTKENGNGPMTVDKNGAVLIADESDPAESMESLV
In words: flow cytometry, IgG1 on H929 cells. Here is the method:
Staining protocol. Cells were harvested (5×10⁴ cells per sample), washed once with phosphate-buffered saline (PBS) at RT, and a second time with ice-cold FACS buffer (PBS, 0.5% BSA, 2 mM EDTA, 0.1% NaN₃). Cells were stained in 50 μL of primary antibody for 30 min on ice, washed twice with 100 μL FACS buffer, stained with 50 μL of diluted secondary antibody, washed two more times in FACS, and then resuspended in 50 μL FACS buffer. Samples were acquired on an Accuri C6 Plus or a BD FACSCanto II flow cytometer (both from BD Biosciences). Data were analyzed using FlowJo version 10 software. Primary antibodies: Fab (10 μg/mL), IgG1 (0.1 to 50 μg/mL), or 25 μL polyclonal Fabs from periplasmic extracts. Polyclonal Fabs were produced by diluting bacterial stocks by a factor of 100 in autoinduction media and incubating overnight to induce expression as previously described. […] Viability stains: DAPI (Cell Signaling Technology) or SYTOX AADvanced Dead Cell Stain (Thermo Fisher Scientific). Labeling: The panel of chimeric rabbit/human IgG1s was labeled using the Alexa Fluor 647 Labeling Kit (Thermo Fisher Scientific, #A20173) to facilitate single-step staining. Competition: Unlabeled IgG1s were added at saturating concentrations of 60 μg/mL to block the target receptors, incubating on ice for 30 min, followed by the addition of an equal volume of the Alexa Fluor 647 labeled antibody at 2 μg/mL, and the mixture was incubated on ice for another 30 min.
On the technique in general: In flow cytometry, cells or beads pass a laser one at a time.

The record followed here is patent publication US20260049134A1 (UNIVERSITY OF FLORIDA RESEARCH FOUNDATION, published 2026).

B1: HW-42 chimeric rabbit-human IgG1 LA/LA/PG (antibody, V domains shown)
VH: QSVKESEGGLFKPADTLTLTCTVSGFSLSSNEISWVRQAPGEGLEYIGIIDTGGRAYYAVWARSRSTITRNTNLNTVTLKMTSLTAADTATYFCARGGVDTEWYAFSSWGPGTLVTVPS
VL: SFVLTQPASVQVNLGQTVSLTCTADTLSRRYASWYQQKPGQAPVLLIFRDTSRPSGVPDRFSGSSSGDTATLTISGAQAGDEADYYCATSDGSGSNYQYVFGGGTQLTVTG
notes: Fc-silenced (L234A/L235A/P329G) IgG1, lambda; Alexa Fluor 647-labeled in single-step flow cytometry; Cluster C-1
With B1, the binding result (with SLAMF7; with SELL (L-Selectin); in experiment [1]) was “no binding (tested: 150 ng IgG1 per well)” throughout. In addition, the “antibody-bound positive cells (%)” value in experiment [2] was found to be 99.8%.

B2: HW-70 chimeric rabbit-human IgG1 LA/LA/PG (antibody, V domains shown)
VH: QSLEESGGRLVTPGTPLTLTCTVSGFSLSSNAMSWVRQAPGKGLEWIGTIDGYGYTYYASWAKGRFTVSKTSTTVDLKITSPTTEDTATYFCAREIYLGSNFWGPGTLVTISS
VL: SFVLTQPASVQVNLGQTVSLTCTADTLSRRYASWYQQKPGQAPVLLIYRDTSRPSGVPDRFSGSSSGNTATLTISGAQAGDEADYYCATADGSGSSYQFVFGGGTQLTVTG
notes: as for B1
As for B2, the binding result (with SLAMF7; in the experiment with SELL (L-Selectin); in experiment [1]) was “no binding (tested: 150 ng IgG1 per well)” throughout. Besides, the “antibody-bound positive cells (%)” value in experiment [2] came to 99.8%.

B3: HW-101 chimeric rabbit-human IgG1 LA/LA/PG (antibody, V domains shown)
VH: QEQLVESGGRLVTPGTPLTLTCKASGFSLGKYDMSWVRQAPGKGLEWIGTIYAGSGSTWYASWAKGRFTISKTSTTVDLKMTSLTTEDTATYFCARDFLGVNSIWGPGTLVTISS
VL: SFVLTQPASVQVNLGQTVSLTCTADTLSRSYASWYQQKPDQAPVLLIHRDTSRPSGVPDRFSGSNSGNTATLTISGAQAGDEADYYCATSDGSGSNFHFVFGGGTQLTVTG
notes: Fc-silenced (L234A/L235A/P329G) IgG1, lambda; Alexa Fluor 647-labeled in single-step flow cytometry; Cluster C-97
For the molecule B3, the binding result with SLAMF7 and with SELL (L-Selectin) was “no binding (tested: 150 ng IgG1 per well)” in each case.

B4: HW-25 chimeric rabbit-human IgG1 LA/LA/PG (antibody, V domains shown)
VH: QSLEESGGRLVTPGTPLTLTCTVSGFSLSSYAMGWVRQAPGKGLEWIGIIDSRGSTYYATWAKGRFTISKTSTTVDLKITSPTTEDTATYFCAREDSYYYDSFNLWGPGTLVTVSS
VL: SFVLTQPASVQVNLGQTVSLTCTADTLSRRYASWYQQKPGQAPVLLIYRDTSRPSGVPDRFSGSSSGNTATLTISGAQAGDEADYYCATSDGSGSSYQCVFGGGTQLTVTG
notes: as for B1
Consider B4, for which the binding result (with SLAMF7; with SELL (L-Selectin); in experiment [1]) was “no binding (tested: 150 ng IgG1 per well)” each time. For the same molecule, in experiment [2], the “antibody-bound positive cells (%)” value was determined as 99.6%.

B5: HW-17 chimeric rabbit-human IgG1 LA/LA/PG (antibody, V domains shown)
VH: QSLGESRGRLVTPDETLTLTCTVSGIDLSSNAMSWVRQAPGEGLEWIGTINTGGRAYYASWAKGRFTISRTSTTVDLKMTSLTTEDTATYFCARERYSDGRAYDIWGPGTLVTISS
VL: SFVLTQPASVQVNLGQTVSLTCTADTLSRRYASWYQQKPGQAPVLLIYTDSNRPSGIPDRFSGSSSGNTATLTISGAQAGDEADYYCATDDGSGSIYQYVFGGGTQLTVTG
notes: as for B1
B5: the binding result with SLAMF7 and with SELL (L-Selectin) was “no binding (tested: 150 ng IgG1 per well)” in each case. Besides, the “antibody-bound positive cells (%)” value in experiment [2] amounted to 100%.

B6: HW-97 chimeric rabbit-human IgG1 LA/LA/PG (antibody, V domains shown)
VH: QKQLVESGGRLVTPGTPLTLTCTVTGIDLSSHGMSWVRQAPGKGLEWIGVIYPSGSTWYASWARGRFTISKTSTTVDLKMTSLTTEDTATHFCARGDVGGADNNIWGPGTLVTVSS
VL: SFVLTQPASVQVDLGQTVSLTCTAETLSRSYASWYQQKPGQAPVLLIYRDTSRPSGVPDRFSGSSSGNTATLTISGAQAGDEADYYCATSDGSGSSYQYVFGGGTQLTVTG
notes: Fc-silenced (L234A/L235A/P329G) IgG1, lambda; Alexa Fluor 647-labeled in single-step flow cytometry; Prototype of cluster C-97
Take B6: the binding result with SLAMF7 and with SELL (L-Selectin) was “no binding (tested: 150 ng IgG1 per well)” each time.

B7: HW-113 chimeric rabbit-human IgG1 LA/LA/PG (antibody, V domains shown)
VH: QKQLVESGGGLVQPGGSLTLTCTVSGFSLNKYYMGWFRQAPGKGLEWIGVISRSGDTYYSSWAKGRFTISKASTTVDLRITSPTTEDTATYFCARDASSPGFHGDRLDLWGQGTLVTVSS
VL: SFVLTQPASVQVNLGQTVSLTCTADTLSRSYASWYQQKPGQAPVLLIYRDTSRPSGVPDRFSGSSSGNTATLTISGAQAGDEADYYCATSDGIGSNYLWVFGGGTQLTVTG
notes: Fc-silenced (L234A/L235A/P329G) IgG1, lambda; Alexa Fluor 647-labeled in single-step flow cytometry
As for B7, the binding result with SLAMF7 and with SELL (L-Selectin) was “no binding (tested: 150 ng IgG1 per well)” each time.

B8: HW-1 chimeric rabbit-human IgG1 LA/LA/PG (antibody, V domains shown)
VH: QSLEESGGGLFKPTDTLTLTCTASGFSLGSSYAISWVRQAPGKELEWIGTIDSGRAYYARWAKSRSTITRNTNENTVTLKMTSLTAADTATYFCARDLIPTYSQDIWGPGTLVTISS
VL: SFVLTQPASVQVNLGQTVSLTCTADTLSRRYASWYQQKPGQAPVLLIYRDTSRPSGVPDRFSGSSSGNTATLTISGAQAGDEADYYCATSDGSGNSYQYVFGGGTQLTVTS
notes: Fc-silenced (L234A/L235A/P329G) IgG1, lambda; Alexa Fluor 647-labeled in single-step flow cytometry; Prototype of cluster C-1
In the case of B8, the binding result with SLAMF7 and with SELL (L-Selectin) was “no binding (tested: 150 ng IgG1 per well)” in each case. Further, the “antibody-bound positive cells (%)” value in experiment [2] was determined as 100%.

B9: TH9-0022 (antibody, human IgG1, kappa, L234A L235A, V domains shown)
VH: QSLEESGGRLVTPGTPLTLTCTVSGFSLSSYAMNWVRQAPGKGLEWIGIINSYGSTYYASWAKGRFTISKTSTTVDLKITSPTTEDTATYFCARVTYDSYGYGYAPYGMDLWGPGTLVTVSS
VL: LVMTQTPSSTSNAVGGTVTIKCQASQSIGNVLAWYQQKPGQPPKLLIYAASTLASGVPSRVGGSRSGTEYTLTISGVQREDAATYYCLGSDSDSDIAFGGGTELEILR
notes: also called TH9-022; negative control
For the molecule B9, the binding result (in the experiment with SLAMF7; with SELL (L-Selectin); in experiment [1]) was “no binding (tested: 150 ng IgG1 per well)” each time.

B10: TH9-0022 (antibody, human IgG1, kappa, L234A L235A, V domains shown)
VH: QSLEESGGRLVTPGTPLTLTCTVSGFSLSSYAMNWVRQAPGKGLEWIGIINSYGSTYYASWAKGRFTISKTSTTVDLKITSPTTEDTATYFCARVTYDSYGYGYAPYGMDLWGPGTLVTVSS
VL: LVMTQTPSSTSNAVGGTVTIKCQASQSIGNVLAWYQQKPGQPPKLLIYAASTLASGVPSRVGGSRSGTEYTLTISGVQREDAATYYCLGSDSDSDIAFGGGTELEILR
notes: also called TH9-022; negative control IgG1
As to B10, the “antibody-bound positive cells (%)” value in experiment [2] was found to be 2.7%.
